# From PMC10641296 (2023)
# Where “and” joins values, the source holds several entries; their conditions need not be identical. Identical values can stand only once.
# B1: human fibrinogen (complex)
# chain 1: GPRVVERHQSACKDSDWPFCSDEDWNYKCPSGCRMKGLIDEVNQDFTNRINKLKNSLFEYQKNNKDSHSLTTNIMEILRGDFSSANNRDNTYNRVSEDLRSRIEVLKRKVIEKVQHIQLLQKNVRAQLVDMKRLEVDIDIKIRSCRGSCSRALAREVDLKDYEDQQKQLEQVIAKDLLPSRDRQHLPLIKMKPVPDLVPGNFKSQLQKVPPEWKALTDMPQMRMELERPGGNEITRGGSTSYGTGSETESPRNPSSAGSWNSGSSGPGSTGNRNPGSSGTGGTATWKPGSSGPGSTGSWNSGSSGTGSTGNQNPGSPRPGSTGTWNPGSSERGSAGHWTSESSVSGSTGQWHSESGSFRPDSPGSGNARPNNPDWGTFEEVSGNVSPGTRREYHTEKLVTSKGDKELRTGKEKVTSGSTTTTRRSCSKTVTKTVIGPDGHKEVTKEVVTSEDGSDCPEAMDLGTLSGIGTLDGFRHRHPDEAAFFDTASTGKTFPGFFSPMLGEFVSETESRGSESGIFTNTKESSSHHPGIAEFPSRGKSSSYSKQFTSSTSYNRGDSTFESKSYKMADEAGSEADHEGTHSTKRGHAKSRPVRDCDDVLQTHPSGTQSGIFNIKLPGSSKIFSVYCDQETSLGGWLLIQQRMDGSLNFNRTWQDYKRGFGSLNDEGEGEFWLGNDYLHLLTQRGSVLRVELEDWAGNEAYAEYHFRVGSEAEGYALQVSSYEGTAGDALIEGSVEEGAEYTSHNNMQFSTFDRDADQWEENCAEVYGGGWWYNNCQAANLNGIYYPGGSYDPRNNSPYEIENGVVWVSFRGADYSLRAVRMKIRPLVTQ
# chain 2: GHRPLDKKREEAPSLRPAPPPISGGGYRARPAKAAATQKKVERKAPDAGGCLHADPDLGVLCPTGCQLQEALLQQERPIRNSVDELNNNVEAVSQTSSSSFQYMYLLKDLWQKRQKQVKDNENVVNEYSSELEKHQLYIDETVNSNIPTNLRVLRSILENLRSKIQKLESDVSAQMEYCRTPCTVSCNIPVVSGKECEEIIRKGGETSEMYLIQPDSSVKPYRVYCDMNTENGGWTVIQNRQDGSVDFGRKWDPYKQGFGNVATNTDGKNYCGLPGEYWLGNDKISQLTRMGPTELLIEMEDWKGDKVKAHYGGFTVQNEANKYQISVNKYRGTAGNALMDGASQLMGENRTMTIHNGMFFSTYDRDNDGWLTSDPRKQCSKEDGGGWWYNRCHAANPNGRYYWGGQYTWDMAKHGTDDGVVWMNWKGSWYSMRKMSMKIRPFFPQQ
# chain 3: YVATRDNCCILDERFGSYCPTTCGIADFLSTYQTKVDKDLQSLEDILHQVENKTSEVKQLIKAIQLTYNPDESSKPNMIDAATLKSRKMLEEIMKYEASILTHDSSIRYLQEIYNSNNQKIVNLKEKVAQLEAQCQEPCKDTVQIHDITGKDCQDIANKGAKQSGLYFIKPLKANQQFLVYCEIDGSGNGWTVFQKRLDGSVDFKKNWIQYKEGFGHLSPTGTTEFWLGNEKIHLISTQSAIPYALRVELEDWNGRTSTADYAMFKVGPEADKYRLTYAYFAGGDAGDAFDGFDFGDDPSDKFFTSHNGMQFSTWDNDNDKFEGNCAEQDGSGWWMNKCHAGHLNGVYYQGGTYSKASTPNGYDNGIIWATWKTRWYSMKKTTMKIIPFNRLTIGEGQQHHLGGAKQVRPEHPAETEYDSLYPEDDL
# Columns and labels:
# [1] = biological target: recombinant histidine-tagged SCM-2 of S. canis strain IMT40096 (Streptococcus canis); experiment: SPR
# [2] = biological target: recombinant histidine-tagged SCM-2 of S. canis strain IMT42870 (Streptococcus canis); experiment: SPR
binder,measurement,setting,value
B1,Kd,[1],15.5 nM and 14.3 nM and 15.1 nM
same,koff,[1],0.000922 s⁻¹ and 0.000948 s⁻¹ and 0.000989 s⁻¹
same,Kd,[2],177 nM and 188 nM and 208 nM
same,koff,[2],0.00271 s⁻¹ and 0.0024 s⁻¹ and 0.00216 s⁻¹
